Measured values as given in patent US8697366 (SEOUL NATIONAL UNIVERSITY INDUSTRY FOUNDATION, dated 2014).
Values belong to the binder of their own block, whether it stands above or below them.

Columns and labels:
β-catenin [1] = molecular target: T1, β-catenin (UniProt P35222 1-781); experiment: anti-Flag M2 affinity purification from HEK293 extracts, LC-MS/MS and immunoblot of eluates
T1 sequence (looked up): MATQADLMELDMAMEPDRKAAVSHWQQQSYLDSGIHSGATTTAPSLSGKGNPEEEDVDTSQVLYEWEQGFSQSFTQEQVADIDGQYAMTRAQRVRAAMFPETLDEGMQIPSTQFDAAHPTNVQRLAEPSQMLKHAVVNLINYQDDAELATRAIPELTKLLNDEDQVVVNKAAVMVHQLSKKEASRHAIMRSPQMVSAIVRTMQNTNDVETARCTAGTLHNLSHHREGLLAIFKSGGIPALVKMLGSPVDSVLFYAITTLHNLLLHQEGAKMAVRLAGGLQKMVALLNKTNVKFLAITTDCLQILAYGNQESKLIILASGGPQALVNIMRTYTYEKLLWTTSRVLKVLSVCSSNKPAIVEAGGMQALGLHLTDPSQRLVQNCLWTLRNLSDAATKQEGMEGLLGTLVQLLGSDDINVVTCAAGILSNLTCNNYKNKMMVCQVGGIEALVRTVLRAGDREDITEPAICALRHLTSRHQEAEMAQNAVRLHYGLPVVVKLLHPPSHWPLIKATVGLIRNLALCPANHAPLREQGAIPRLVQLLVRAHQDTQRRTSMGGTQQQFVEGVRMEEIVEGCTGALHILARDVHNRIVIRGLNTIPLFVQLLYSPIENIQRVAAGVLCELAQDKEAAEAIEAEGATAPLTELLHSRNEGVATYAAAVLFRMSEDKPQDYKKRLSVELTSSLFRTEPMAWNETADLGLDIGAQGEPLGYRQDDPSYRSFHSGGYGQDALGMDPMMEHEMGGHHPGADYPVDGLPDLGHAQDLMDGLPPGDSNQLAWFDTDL
Procedure: FIG. 1. Purification of RORα-containing complex and identification of β-catenin as a binding partner (A) RORα-containing complex was purified from extracts obtained from HEK293 cells stably expressing Flag-tagged RORα. As a negative control, a mock purification from HEK293 cells stably expressing an empty vector was performed. The bound proteins were resolved by SDS-PAGE and prepared for LC-MS/MS analysis. […] (C) β-catenin and GRIP1 were detected from the elutes by immunoblot analysis. (D) Coimmunoprecipitation of endogenous RORα with β-catenin in HEK293 cells. (E) Ni+-NTA-agarose pulldown assay was performed with plasmids expressing each GFP-tagged β-catenin deletion construct and HisMax-RORα. (F) Illustration of the structure of various β-catenin deletion constructs and binding to RORα.
Purification of RORα-Containing Complex and Identification of β-Catenin as a Binding Partner To investigate the as-yet-unidentified functional modules of RORα, we used a Flag epitope-tag strategy to purify RORα-containing complexes. We generated cell lines that stably express Flag-tagged RORα, and incubated the extracts in anti-Flag M2 affinity gel. After washing with buffer containing increasing salt concentrations of up to 500 mM, the proteins retained on the affinity chromatography column were eluted with buffer containing Flag peptide. […]

PKCβ2 = PKCβ2 (UniProt P05771-2 1-673); experiment: in vivo coimmunoprecipitation
PKCβ2, sequence (P05771 other isoform, or with tags, fused parts or gaps): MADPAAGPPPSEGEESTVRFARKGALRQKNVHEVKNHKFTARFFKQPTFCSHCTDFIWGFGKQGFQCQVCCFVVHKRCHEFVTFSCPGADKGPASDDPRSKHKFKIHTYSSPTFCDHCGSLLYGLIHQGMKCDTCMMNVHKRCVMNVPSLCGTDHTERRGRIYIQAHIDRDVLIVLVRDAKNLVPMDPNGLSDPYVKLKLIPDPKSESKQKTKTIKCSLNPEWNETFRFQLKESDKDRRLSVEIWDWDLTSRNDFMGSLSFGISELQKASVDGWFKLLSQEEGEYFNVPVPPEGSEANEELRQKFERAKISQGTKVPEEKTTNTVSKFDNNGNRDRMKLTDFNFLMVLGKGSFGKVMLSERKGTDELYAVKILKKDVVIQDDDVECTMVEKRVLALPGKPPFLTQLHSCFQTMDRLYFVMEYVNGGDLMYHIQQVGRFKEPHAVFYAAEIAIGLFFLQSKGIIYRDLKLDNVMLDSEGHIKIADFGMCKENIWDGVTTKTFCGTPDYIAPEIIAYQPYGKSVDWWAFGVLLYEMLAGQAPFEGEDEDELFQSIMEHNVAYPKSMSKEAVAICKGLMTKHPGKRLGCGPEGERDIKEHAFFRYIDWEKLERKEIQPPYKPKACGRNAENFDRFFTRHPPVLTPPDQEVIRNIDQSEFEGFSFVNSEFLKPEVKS

PKCδ = PKCδ (UniProt Q05655 1-676); experiment: in vivo coimmunoprecipitation
PKCδ, sequence (Q05655 whole entry, stated change not applied): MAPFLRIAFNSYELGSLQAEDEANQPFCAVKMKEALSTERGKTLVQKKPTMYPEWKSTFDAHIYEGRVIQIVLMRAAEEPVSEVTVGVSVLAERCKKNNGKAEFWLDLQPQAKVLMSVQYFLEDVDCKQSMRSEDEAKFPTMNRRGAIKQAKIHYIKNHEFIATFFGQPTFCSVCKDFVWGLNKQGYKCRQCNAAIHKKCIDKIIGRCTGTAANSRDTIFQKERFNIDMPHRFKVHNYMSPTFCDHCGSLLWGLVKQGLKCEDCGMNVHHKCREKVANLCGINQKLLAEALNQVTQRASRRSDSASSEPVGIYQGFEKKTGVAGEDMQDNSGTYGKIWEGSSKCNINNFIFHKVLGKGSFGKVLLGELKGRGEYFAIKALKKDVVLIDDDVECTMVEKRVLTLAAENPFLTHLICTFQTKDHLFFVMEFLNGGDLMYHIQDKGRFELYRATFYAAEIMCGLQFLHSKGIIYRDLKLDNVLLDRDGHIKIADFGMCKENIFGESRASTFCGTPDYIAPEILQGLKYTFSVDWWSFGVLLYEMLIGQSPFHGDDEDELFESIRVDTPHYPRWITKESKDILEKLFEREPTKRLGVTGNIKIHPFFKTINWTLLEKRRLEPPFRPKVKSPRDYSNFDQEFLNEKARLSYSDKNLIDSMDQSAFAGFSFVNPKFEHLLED

PKCη = PKCη (UniProt P24723 1-683); experiment: in vivo coimmunoprecipitation
PKCη, sequence (P24723 whole entry): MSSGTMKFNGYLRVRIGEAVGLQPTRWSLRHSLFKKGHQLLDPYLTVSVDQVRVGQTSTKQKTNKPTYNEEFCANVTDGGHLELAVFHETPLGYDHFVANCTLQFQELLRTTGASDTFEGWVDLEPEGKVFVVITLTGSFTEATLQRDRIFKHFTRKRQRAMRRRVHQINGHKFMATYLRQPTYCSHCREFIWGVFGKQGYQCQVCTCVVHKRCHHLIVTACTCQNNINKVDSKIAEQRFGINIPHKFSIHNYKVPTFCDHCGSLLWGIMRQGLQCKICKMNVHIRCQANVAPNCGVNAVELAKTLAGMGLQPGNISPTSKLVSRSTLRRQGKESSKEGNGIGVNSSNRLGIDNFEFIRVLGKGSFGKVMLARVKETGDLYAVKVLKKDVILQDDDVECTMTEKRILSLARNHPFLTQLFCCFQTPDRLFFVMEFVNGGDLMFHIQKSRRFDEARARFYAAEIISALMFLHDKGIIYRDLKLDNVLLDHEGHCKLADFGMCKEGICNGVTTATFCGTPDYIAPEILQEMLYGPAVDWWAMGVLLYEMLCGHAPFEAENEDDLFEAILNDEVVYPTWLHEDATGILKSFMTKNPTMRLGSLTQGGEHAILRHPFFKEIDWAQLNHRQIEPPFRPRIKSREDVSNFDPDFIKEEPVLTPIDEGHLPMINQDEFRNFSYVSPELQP

PKCε = molecular target: T2, PKCε (UniProt Q02156 1-737); experiment: in vivo coimmunoprecipitation
T2 sequence (looked up): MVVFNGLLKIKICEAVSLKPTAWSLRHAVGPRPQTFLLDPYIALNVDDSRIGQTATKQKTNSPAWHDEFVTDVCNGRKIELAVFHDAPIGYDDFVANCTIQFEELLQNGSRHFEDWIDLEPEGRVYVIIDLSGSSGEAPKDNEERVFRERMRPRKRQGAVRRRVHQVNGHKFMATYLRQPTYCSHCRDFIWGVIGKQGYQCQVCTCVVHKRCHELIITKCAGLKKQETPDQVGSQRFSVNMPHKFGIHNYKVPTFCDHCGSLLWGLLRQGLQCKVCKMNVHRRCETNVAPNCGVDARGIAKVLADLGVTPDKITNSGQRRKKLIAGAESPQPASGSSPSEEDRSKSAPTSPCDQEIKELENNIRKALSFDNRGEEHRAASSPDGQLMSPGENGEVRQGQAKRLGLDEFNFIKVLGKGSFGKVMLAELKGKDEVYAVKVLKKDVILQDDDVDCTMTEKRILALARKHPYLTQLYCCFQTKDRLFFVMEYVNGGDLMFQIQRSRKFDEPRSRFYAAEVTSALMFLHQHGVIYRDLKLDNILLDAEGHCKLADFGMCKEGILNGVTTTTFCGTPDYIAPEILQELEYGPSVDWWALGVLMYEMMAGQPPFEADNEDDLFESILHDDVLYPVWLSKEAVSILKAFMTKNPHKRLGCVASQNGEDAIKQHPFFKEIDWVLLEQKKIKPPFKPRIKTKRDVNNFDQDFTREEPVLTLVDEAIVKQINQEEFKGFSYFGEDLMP

β-catenin [2] = molecular target: T1, β-catenin; experiment: co-IP with anti-Flag antibody from HCT116 cells, immunoblot for β-catenin
Procedure: FIG. 4. PKCα-dependent phosphorylation of RORα is crucial for downregulation of Wnt/β-catenin target genes (A) The specificity of the antibody raised against phosphorylated RORαS35 peptide (SEQ ID NO:18) was assessed by dot blot analysis. (B) Treatment of TPA increased phophorylated RORα on S35 site as assessed by immunoprecipitation with anti-phospho-RORαS35 antibody. […] (D) Treatment of Go6976, a PKCα inhibitor, abolished TPA-dependent phosphorylation of RORα as assessed by immonoblotting with anti-phospho-RORαS35 antibody. (E) HCT116 cells were transfected with Flag-RORα WT, S35D, or S35A, and the cell extracts were immunoprecipitated with anti-Flag antibody followed by immunoblotting against anti-β-catenin antibody. (F) Coimmunoprecipitation assay of β-catenin with either RORαWT or S35A in HCT116 cells after treatment with TPA in the absence or presence of Go6976. (G) ChIP analysis on the cyclin D1 promoter after transfection with Flag-RORαWT, S35A, or S35D in HCT116 cells. (H) ChIP analysis on the cyclin D1 promoter in HCT116 cells after TPA treatment for indicated time. […] (J) Real-time quantitative RT-PCR analysis of the cyclin D1 transcript in HCT116 cells in the presence of TPA for indicated time. (K) Knockdown effect of siRNA against RORα or PKCα was assessed in the expression of the cyclin D1 transcript in HCT116 cells. […]

B1: Flag-tagged RORα (receptor, UniProt P35398 1-523, looked up)
chain: MESAPAAPDPAASEPGSSGADAAAGSRETPLNQESARKSEPPAPVRRQSYSSTSRGISVTKKTHTSQIEIIPCKICGDKSSGIHYGVITCEGCKGFFRRSQQSNATYSCPRQKNCLIDRTSRNRCQHCRLQKCLAVGMSRDAVKFGRMSKKQRDSLYAEVQKHRMQQQQRDHQQQPGEAEPLTPTYNISANGLTELHDDLSNYIDGHTPEGSKADSAVSSFYLDIQPSPDQSGLDINGIKPEPICDYTPASGFFPYCSFTNGETSPTVSMAELEHLAQNISKSHLETCQYLREELQQITWQTFLQEEIENYQNKQREVMWQLCAIKITEAIQYVVEFAKRIDGFMELCQNDQIVLLKAGSLEVVFIRMCRAFDSQNNTVYFDGKYASPDVFKSLGCEDFISFVFEFGKSLCSMHLTEDEIALFSAFVLMSADRSWLQEKVKIEKLQQKIQLALQHVLQKNHREDGILTKLICKVSTLRALCGRHTEKLMAFKAIYPDIVRLHFPPLYKELFTSEFEPAMQIDG
notes: also called Flag-RORα; Flag-RORα WT; not shown: Flag tag
binding result (β-catenin [1]): binds

B3: Flag-RORα S35D (receptor, UniProt P35398 1-523, looked up)
chain: MESAPAAPDPAASEPGSSGADAAAGSRETPLNQEDARKSEPPAPVRRQSYSSTSRGISVTKKTHTSQIEIIPCKICGDKSSGIHYGVITCEGCKGFFRRSQQSNATYSCPRQKNCLIDRTSRNRCQHCRLQKCLAVGMSRDAVKFGRMSKKQRDSLYAEVQKHRMQQQQRDHQQQPGEAEPLTPTYNISANGLTELHDDLSNYIDGHTPEGSKADSAVSSFYLDIQPSPDQSGLDINGIKPEPICDYTPASGFFPYCSFTNGETSPTVSMAELEHLAQNISKSHLETCQYLREELQQITWQTFLQEEIENYQNKQREVMWQLCAIKITEAIQYVVEFAKRIDGFMELCQNDQIVLLKAGSLEVVFIRMCRAFDSQNNTVYFDGKYASPDVFKSLGCEDFISFVFEFGKSLCSMHLTEDEIALFSAFVLMSADRSWLQEKVKIEKLQQKIQLALQHVLQKNHREDGILTKLICKVSTLRALCGRHTEKLMAFKAIYPDIVRLHFPPLYKELFTSEFEPAMQIDG
notes: not shown: Flag tag
binding result (β-catenin [2]): binds

Other lines, results leading:

binding result (PKCβ2): no binding
binding result (PKCδ): no binding
binding result (PKCη): no binding
binding result (PKCε): no binding
B2: RORα (receptor, UniProt P35398 1-523, looked up)
chain: MESAPAAPDPAASEPGSSGADAAAGSRETPLNQESARKSEPPAPVRRQSYSSTSRGISVTKKTHTSQIEIIPCKICGDKSSGIHYGVITCEGCKGFFRRSQQSNATYSCPRQKNCLIDRTSRNRCQHCRLQKCLAVGMSRDAVKFGRMSKKQRDSLYAEVQKHRMQQQQRDHQQQPGEAEPLTPTYNISANGLTELHDDLSNYIDGHTPEGSKADSAVSSFYLDIQPSPDQSGLDINGIKPEPICDYTPASGFFPYCSFTNGETSPTVSMAELEHLAQNISKSHLETCQYLREELQQITWQTFLQEEIENYQNKQREVMWQLCAIKITEAIQYVVEFAKRIDGFMELCQNDQIVLLKAGSLEVVFIRMCRAFDSQNNTVYFDGKYASPDVFKSLGCEDFISFVFEFGKSLCSMHLTEDEIALFSAFVLMSADRSWLQEKVKIEKLQQKIQLALQHVLQKNHREDGILTKLICKVSTLRALCGRHTEKLMAFKAIYPDIVRLHFPPLYKELFTSEFEPAMQIDG
notes: also called retinoic acid-related orphan nuclear receptor (ROR)α; endogenous RORα

binding result (β-catenin [2]): binds
B4: Flag-RORα DBD mutant (C90A) (receptor, UniProt P35398 1-523, looked up)
chain: MESAPAAPDPAASEPGSSGADAAAGSRETPLNQESARKSEPPAPVRRQSYSSTSRGISVTKKTHTSQIEIIPCKICGDKSSGIHYGVITAEGCKGFFRRSQQSNATYSCPRQKNCLIDRTSRNRCQHCRLQKCLAVGMSRDAVKFGRMSKKQRDSLYAEVQKHRMQQQQRDHQQQPGEAEPLTPTYNISANGLTELHDDLSNYIDGHTPEGSKADSAVSSFYLDIQPSPDQSGLDINGIKPEPICDYTPASGFFPYCSFTNGETSPTVSMAELEHLAQNISKSHLETCQYLREELQQITWQTFLQEEIENYQNKQREVMWQLCAIKITEAIQYVVEFAKRIDGFMELCQNDQIVLLKAGSLEVVFIRMCRAFDSQNNTVYFDGKYASPDVFKSLGCEDFISFVFEFGKSLCSMHLTEDEIALFSAFVLMSADRSWLQEKVKIEKLQQKIQLALQHVLQKNHREDGILTKLICKVSTLRALCGRHTEKLMAFKAIYPDIVRLHFPPLYKELFTSEFEPAMQIDG
notes: also called RORαC90A; not shown: Flag tag
